Molecular target: Type II Hsp40 Sis1 (S. cerevisiae (endogenous in yeast)) (UniProt P25294)
Test: co-IP; yeast cell extracts in Buffer A (150 mM NaCl, 50 mM Hepes pH 7.4, 1 mM EDTA, 0.1% Triton X-100), indicated antisera 1 hour at 4°C, Protein G beads, immunoblotting; extracts with or without Apyrase (Ssa1); WT or Δhsp104 strain (Sis1)

Chain of UniProt P25294 (P25294 whole entry): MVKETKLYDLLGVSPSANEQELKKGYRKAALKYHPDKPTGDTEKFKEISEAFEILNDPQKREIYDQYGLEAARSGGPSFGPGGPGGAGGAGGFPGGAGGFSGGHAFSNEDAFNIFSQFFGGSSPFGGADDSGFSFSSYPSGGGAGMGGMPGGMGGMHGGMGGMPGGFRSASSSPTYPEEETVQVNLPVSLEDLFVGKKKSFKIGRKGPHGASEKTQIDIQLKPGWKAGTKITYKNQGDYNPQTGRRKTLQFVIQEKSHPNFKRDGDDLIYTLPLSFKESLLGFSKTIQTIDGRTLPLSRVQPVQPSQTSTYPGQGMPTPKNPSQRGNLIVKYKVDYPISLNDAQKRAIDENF

In the case of short-lived GFP (slGFP), the fold change of immunoprecipitable Sis1:slGFP complexes in Δhsp104 against WT is reported as 1.5 fold.
